These are literature values, as cited in publication PMC7823800.

Usually Kd stands for the constant that tells how readily two partners part at equilibrium.

Series [1] concerns the target TNF (Homo sapiens) (UniProt P01375).
Series [2] has the same target. The source holds these as a separate data set.

Where two headings read alike, the source gives them in different places.

Chain of TNF (Homo sapiens) (P01375 77-233): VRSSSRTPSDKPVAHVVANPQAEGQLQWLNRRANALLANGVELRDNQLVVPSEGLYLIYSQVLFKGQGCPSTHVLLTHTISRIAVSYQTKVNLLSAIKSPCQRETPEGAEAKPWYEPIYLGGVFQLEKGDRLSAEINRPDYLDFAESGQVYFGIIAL
Chain of CrmB (P0DSV7 23-349): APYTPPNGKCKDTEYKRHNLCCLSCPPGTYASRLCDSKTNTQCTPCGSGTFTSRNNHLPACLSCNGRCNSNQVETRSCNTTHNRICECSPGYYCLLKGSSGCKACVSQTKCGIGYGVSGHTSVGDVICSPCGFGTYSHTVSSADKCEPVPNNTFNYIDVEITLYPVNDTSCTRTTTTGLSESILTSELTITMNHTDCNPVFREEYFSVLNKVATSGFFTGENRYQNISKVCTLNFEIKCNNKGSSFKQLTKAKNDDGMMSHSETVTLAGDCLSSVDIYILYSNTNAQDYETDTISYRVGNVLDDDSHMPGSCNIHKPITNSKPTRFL
Chain of TNFR2 (P20333 23-461): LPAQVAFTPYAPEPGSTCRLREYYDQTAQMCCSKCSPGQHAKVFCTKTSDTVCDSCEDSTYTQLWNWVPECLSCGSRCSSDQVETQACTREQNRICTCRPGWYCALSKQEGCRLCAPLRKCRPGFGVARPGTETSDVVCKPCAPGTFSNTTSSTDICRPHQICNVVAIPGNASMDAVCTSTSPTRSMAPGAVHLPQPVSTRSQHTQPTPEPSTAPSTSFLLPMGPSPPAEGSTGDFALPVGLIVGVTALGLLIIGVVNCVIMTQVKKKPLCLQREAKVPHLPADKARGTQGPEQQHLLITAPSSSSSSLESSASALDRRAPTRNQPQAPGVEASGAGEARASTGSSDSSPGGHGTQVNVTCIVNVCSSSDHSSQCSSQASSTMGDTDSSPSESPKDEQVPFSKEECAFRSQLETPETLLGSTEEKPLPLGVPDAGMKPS

For CrmB (from UniProt P0DSV7), the Kd in the series with TNF (Homo sapiens) [1] is 0.28 nM.

In the case of TNFR2 (from UniProt P20333), the Kd with TNF (Homo sapiens) [2] is 0.3 nM.
